# Patent US20210292396A1
# B1: ePGT121.15.H2.L1 (antibody, V domains shown)
# VH: QMQLQESGPGLVKPGETLSLTCSVSGASISSSYWSWLRETPGKGLEWIGYTHHSGDTNYAPSLKSRVHLGLHPSKNQVSLSLTSVTAADTAVYYCARTLHGRRIYGVVAFNEWFTYFYWEVWGKGTQVTVSS
# VL: SDISVAPGETVRISCGGESIGSRAVQWYQHRAGQAPKLIIYNNQDRPPGIPERFSGSPDIDFGTTATLTITNVEAGDEATYYCHIWDSRRPTNWVFGGGTTLTVL
# Target: HIV Env of isolate A07412M1.vrc12 (HIV)
# Test: cell-based or functional assay
binder,measurement,value
B1,neutralization (Table 6 value),0.000944
